# Experimental data taken from US5945585.
# Legend:
# lauryl-ACP (12:0-ACP) = conditions: scale: pmoles per min per microliter of cell lysate
# [1] = biological target: [14C]oleoyl-ACP made from E. coli acyl carrier protein (E. coli) (UniProt P0A6A8); conditions: scale: pmoles per min per microliter of cell lysate
# caproyl-ACP (10:0-ACP) = conditions: scale: pmoles per min per microliter of cell lysate
# [2] = biological target: [14C]oleoyl-ACP made from E. coli acyl carrier protein (E. coli) (UniProt P0A6A8); conditions: scale: times the E. coli background thioesterase activity
# [3] = biological target: [14C]stearoyl-ACP made from E. coli acyl carrier protein (E. coli) (UniProt P0A6A8)
# [4] = biological target: [14C]oleoyl-ACP made from E. coli acyl carrier protein (E. coli) (UniProt P0A6A8)
molecule,measurement,setting,value
β-galactosidase fusion protein of the Cuphea viscossisima oleoyl-ACP thioesterase precursor (p1A insert in pBluescript) (enzyme),activity per microliter of cell lysate,lauryl-ACP (12:0-ACP),0.1
same,activity per microliter of cell lysate,[1],15.5
same,activity per microliter of cell lysate,caproyl-ACP (10:0-ACP),0.05
"β-galactosidase fusion protein of the Brassica napus oleoyl-ACP thioesterase (p5C insert in pBluescript SK, correct orientation) (enzyme)",Oleoyl-ACP thioesterase activity,[2],26
"soybean seed acyl-ACP thioesterase, purified from developing soybean seeds (Glycine max cultivar Wye) (enzyme) RVEADPGTLADRLRVGSLTEDGLSYKEKFIVRSYEVGINKTATVETIANLLQEVGCNHAQSVGYSTDGFATTPTMRKLRLIWVTARMHIEIYKYPAWSDIVEIETWCQGEGRVGTRRDFILKDYATDEVIGRATSKWVMMNQDTRRLQKVSDDVKEEYLVFCPREPRLAIPEADSNSLKKIPKLEDPAQYSRLGLVPRRADLDMNQHVNNVTYIGWVLESMPQEIIDSHELQSITLDYRRECGQHDIVDSLTSVEAIQGGAEAVPELKGTNGSATAREDKHEHQQFLHLLRLSTEGLEINRGRTEWRKKAPR",Net pmol/µL/min (standard acyl-ACP thioesterase assay),[3],4.07 pmol/µL/min
soybean seed acyl-ACP thioesterase expressed from the phaseolin:soybean thioesterase transgene (pZPHTE1) in Brassica napus line 241 (enzyme) RVEADPGTLADRLRVGSLTEDGLSYKEKFIVRSYEVGINKTATVETIANLLQEVGCNHAQSVGYSTDGFATTPTMRKLRLIWVTARMHIEIYKYPAWSDIVEIETWCQGEGRVGTRRDFILKDYATDEVIGRATSKWVMMNQDTRRLQKVSDDVKEEYLVFCPREPRLAIPEADSNSLKKIPKLEDPAQYSRLGLVPRRADLDMNQHVNNVTYIGWVLESMPQEIIDSHELQSITLDYRRECGQHDIVDSLTSVEAIQGGAEAVPELKGTNGSATAREDKHEHQQFLHLLRLSTEGLEINRGRTEWRKKAPR,"Thioesterase Activity (nmole min^-1 embryo^-1), nmoles of 18:1-ACP hydrolyzed per embryo per minute (nmole min^-1 embryo^-1)",[4],4.53
